Substitutions are numbered along the chain they refer to.
B1: H237-MB390/MRAL-k0 (antibody, mouse IgG1, kappa)
heavy: QVQLQESGPGLVKPSETLSLTCAVSGHSISHDHAWSWVRQPPGEGLEWIGFISYSGITNYNPSLQGRVTISRDNSKNTLYLQMNSLRAEDTAVYYCARSLARTTAMDYWGEGTLVTVSSAKTTPPSVYPLAPGSAAQTNSMVTLGCLVKGYFPEPVTVTWNSGSLSSGVHTFPAVLQSDLYTLSSSVTVPSSTWPSETVTCNVAHPASSTKVDKKIVPRDCGCKPCICEPNEVEDVFIFPPKPKDVLTITLTPKVTCVVVDISKDDPEVQFSWFVDDVEVHTAQTQPREEQFNSTFRSVSELPIMHQDWLNGKEFKCRVNSAAFPAPIEKTISKTKGRPKAPQVYTIPPPKEQMAKDKVSLTCMITDFFPEDITVEWQWNGQPAENYKNTQPIMDTDGSYFVYSKLNVQKSNWEAGNTFTCSVLHEGLHNHHTEKSLSHSPGK
light: not shown
notes: Template of the MB390 variants; copies: 2 + 2
B2: H237-MB441/MRAL-k0 (antibody, mouse IgG1, kappa)
heavy: B1 heavy with P230T, N231Y, A326K
light: not shown
notes: copies: 2 + 2
B3: H237-MB886/MRAL-k0 (antibody, mouse IgG1, kappa)
heavy: B1 heavy with V233E, D235S
light: not shown
notes: mouse IgG1 CH variant; copies: 2 + 2
B4: H237-MB884/MRAL-k0 (antibody, mouse IgG1, kappa)
heavy: B1 heavy with V233E, E234S, D235L
light: not shown
notes: as for B3
B5: H237-MB439/MRAL-k0 (antibody, mouse IgG1, kappa)
heavy: B1 heavy with P230T, N231Y, S263E
light: not shown
notes: copies: 2 + 2
B6: H237-MB397/MRAL-k0 (antibody, mouse IgG1, kappa)
heavy: B1 heavy with P230T, N231Y
light: not shown
notes: Template of the MB397 variants; copies: 2 + 2
B7: H237-MB442/MRAL-k0 (antibody, mouse IgG1, kappa)
heavy: B1 heavy with P230T, N231Y, K330R
light: not shown
notes: copies: 2 + 2
B8: H237-MB885/MRAL-k0 (antibody, mouse IgG1, kappa)
heavy: B1 heavy with N231A, V233E, D235S
light: not shown
notes: as for B3
B9: H237-MB883/MRAL-k0 (antibody, mouse IgG1, kappa)
heavy: B1 heavy with N231A, V233E, E234S, D235L
light: not shown
notes: as for B3
B10: H237-MB440/MRAL-k0 (antibody, mouse IgG1, kappa)
heavy: B1 heavy with P230T, N231Y, P267L
light: not shown
notes: copies: 2 + 2

Assays:
[1] = target: T1, mouse FcγRII extracellular domain, C-terminally His-tagged (mouse, UniProt P08101 30-210); experiment: SPR Biacore T200, KD ratio
T1 construct: the whole entry is named; also called mFcγRII; mFcgRII
T1 sequence: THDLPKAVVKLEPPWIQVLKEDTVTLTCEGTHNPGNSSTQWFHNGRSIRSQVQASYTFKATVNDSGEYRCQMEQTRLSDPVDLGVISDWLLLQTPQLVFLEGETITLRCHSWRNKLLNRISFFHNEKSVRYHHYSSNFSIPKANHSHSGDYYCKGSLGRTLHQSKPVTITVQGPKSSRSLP
Source text: (§1) The antibody H chain variable region used was the variable region H237 (SEQ ID NO: 1) of the H chain VH3-IgG1 of the anti-IL-6 receptor antibody Fv4-IgG1 described in WO2009/125825. The antibody L chain commonly used was the L chain MRAL-k0 (SEQ ID NO: 2) of the anti-IL-6 receptor antibody tocilizumab. […] The resulting variant groups were designated as MB397 variants and MB390 variants, respectively. These variants were expressed and purified by the method of Reference Example 1 and evaluated for their binding to mFcγRII and mFcγRIII by the method of Reference Example 2 using Biacore T200.
(§2) Each altered antibody was analyzed for its interaction with each Fcγ receptor prepared above using Biacore T100 (GE Healthcare Japan Corp.), Biacore T200 (GE Healthcare Japan Corp.), Biacore A100, or Biacore 4000. The running buffer used was HBS-EP+ (GE Healthcare Japan Corp.). The assay temperature was set to 25° C. The sensor chips used were chips prepared by immobilizing Protein L (ACTIGEN or BioVision) onto Series S Sensor Chip CM5 (GE Healthcare Japan Corp.) or Series S Sensor Chip CM4 (GE Healthcare Japan Corp.) by the amine coupling method.
(§3) In order to calculate the KD value of each altered antibody for FcγR, kinetic analysis was conducted according to the following method: first, the antibody of interest was captured onto any of these chips and allowed to interact with mFcγR diluted with a running buffer. For the obtained sensorgram, the assay results were globally fit into the 1:1 Langmuir binding model using Biacore Evaluation Software to calculate an association rate constant ka (L/mol/s) and a dissociation rate constant kd (1/s). From these values, the dissociation constant KD (mol/L) was calculated.

[2] = target: T2, mouse FcγRIII extracellular domain, C-terminally His-tagged (mouse, UniProt P08508 31-215); experiment: SPR Biacore T200, KD ratio
T2 construct: the whole entry is named; also called mFcγRIII; mFcgRIII
T2 chain: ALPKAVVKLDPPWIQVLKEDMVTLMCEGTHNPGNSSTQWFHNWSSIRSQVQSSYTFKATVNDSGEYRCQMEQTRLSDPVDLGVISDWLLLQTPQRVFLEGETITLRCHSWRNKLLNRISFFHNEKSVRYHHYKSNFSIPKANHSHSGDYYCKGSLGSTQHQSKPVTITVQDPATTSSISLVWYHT
Source text: as §1, §2, §3

mouse FcγRIII = target: T3, mouse FcγRIII (mouse, UniProt P08508 31-215); experiment: SPR (Biacore), antibody captured on Protein L, mFcγR as analyte
T3 construct: also called mFcγRIII; mFcgRIII
T3 chain: T2 chain

mouse FcγRII = target: T4, mouse FcγRII (mouse, UniProt P08101 30-210); experiment: as above
T4 construct: also called mFcγRII; mFcgRII
T4 sequence: T1 sequence

| Binder | relative mFcγRII-binding activity (MB390 = 1) [1] | relative mFcγRII-binding activity (mIgG1 = 1) [1] | relative mFcγRIII-binding activity (MB390 = 1) [2] | relative mFcγRIII-binding activity (mIgG1 = 1) [2] | relative mFcγRII-binding activity (MB397 = 1) [1] | relative mFcγRIII-binding activity (MB397 = 1) [2] | Kd (mouse FcγRIII) | relative mFcγRIII-binding activity (mIgG1 = 1) (mouse FcγRIII) | Kd (mouse FcγRII) | relative mFcγRII-binding activity (mIgG1 = 1) (mouse FcγRII) |
| --- | --- | --- | --- | --- | --- | --- | --- | --- | --- | --- |
| B1 | 1 fold | 522 fold | 1 fold | 11.9 fold | – | – | – | – | – | – |
| B2 | – | 39.7 fold | – | 4.1 fold | 0.07 fold | 0.21 fold | – | – | – | – |
| B3 | – | – | – | – | – | – | 7220 nM | 0.08 fold | 246 nM | 1.47 fold |
| B4 | – | – | – | – | – | – | 5910 nM | 0.09 fold | 148 nM | 2.46 fold |
| B5 | – | 39.5 fold | – | 4.5 fold | 0.07 fold | 0.23 fold | – | – | – | – |
| B6 | – | 555 fold | – | 19.3 fold | 1 fold | 1 fold | – | – | – | – |
| B7 | – | 884 fold | – | 26.9 fold | 1.6 fold | 1.39 fold | – | – | – | – |
| B8 | – | – | – | – | – | – | 4350 nM | 0.13 fold | 111 nM | 3.29 fold |
| B9 | – | – | – | – | – | – | 4960 nM | 0.11 fold | 164 nM | 2.21 fold |
| B10 | – | 120 fold | – | 6.9 fold | 0.22 fold | 0.36 fold | – | – | – | – |
